The text below walks through data of patent US20260234245A1.

The target of assay [1] is human L1CAM on the surface of human cancer cell lines (human) (UniProt P32004). As to the kind of experiment: flow cytometry on HeLa cells, PE-labeled isotype control (background), mean of triplicates.
Assay [2] has the same target. As to the kind of experiment: flow cytometry on PC-03 cells, PE-labeled isotype control (background), mean of triplicates.
Assay [3] has the same target. As to the kind of experiment: flow cytometry on SKOV3 cells, PE-labeled isotype control (background), mean of triplicates. (Flow cytometry measures light scatter and fluorescence of single cells or particles in a stream.)
The target is the same in assay [4]. Description: flow cytometry on Panc-1 cells, PE-labeled isotype control (background), mean of triplicates.
Assay [5] shares this target. Description: flow cytometry on HeLa cells, PE-labeled antibody, mean of triplicates.
Assay [6] has the same target. Description: flow cytometry on PC-03 cells, PE-labeled antibody, mean of triplicates.
The target is the same in assay [7]. Description: flow cytometry on SKOV3 cells, PE-labeled antibody, mean of triplicates.
The target is the same in assay [8]. As to the kind of experiment: flow cytometry on Panc-1 cells, PE-labeled antibody, mean of triplicates.
The target is the same in assay [9]. Description: flow cytometry on HeLa cells, against PE-labeled isotype control MOPC-173.
For assay [10] the target is unchanged. As to the kind of experiment: flow cytometry on PC-03 cells, against PE-labeled isotype control MOPC-173.
Assay [11] shares this target. As to the kind of experiment: flow cytometry on SKOV3 cells, against PE-labeled isotype control MOPC-173.
For assay [12] the target is unchanged. As to the kind of experiment: flow cytometry on Panc-1 cells, against PE-labeled isotype control MOPC-173.

Chain of human L1CAM on the surface of human cancer cell lines (human) (P32004 20-1257): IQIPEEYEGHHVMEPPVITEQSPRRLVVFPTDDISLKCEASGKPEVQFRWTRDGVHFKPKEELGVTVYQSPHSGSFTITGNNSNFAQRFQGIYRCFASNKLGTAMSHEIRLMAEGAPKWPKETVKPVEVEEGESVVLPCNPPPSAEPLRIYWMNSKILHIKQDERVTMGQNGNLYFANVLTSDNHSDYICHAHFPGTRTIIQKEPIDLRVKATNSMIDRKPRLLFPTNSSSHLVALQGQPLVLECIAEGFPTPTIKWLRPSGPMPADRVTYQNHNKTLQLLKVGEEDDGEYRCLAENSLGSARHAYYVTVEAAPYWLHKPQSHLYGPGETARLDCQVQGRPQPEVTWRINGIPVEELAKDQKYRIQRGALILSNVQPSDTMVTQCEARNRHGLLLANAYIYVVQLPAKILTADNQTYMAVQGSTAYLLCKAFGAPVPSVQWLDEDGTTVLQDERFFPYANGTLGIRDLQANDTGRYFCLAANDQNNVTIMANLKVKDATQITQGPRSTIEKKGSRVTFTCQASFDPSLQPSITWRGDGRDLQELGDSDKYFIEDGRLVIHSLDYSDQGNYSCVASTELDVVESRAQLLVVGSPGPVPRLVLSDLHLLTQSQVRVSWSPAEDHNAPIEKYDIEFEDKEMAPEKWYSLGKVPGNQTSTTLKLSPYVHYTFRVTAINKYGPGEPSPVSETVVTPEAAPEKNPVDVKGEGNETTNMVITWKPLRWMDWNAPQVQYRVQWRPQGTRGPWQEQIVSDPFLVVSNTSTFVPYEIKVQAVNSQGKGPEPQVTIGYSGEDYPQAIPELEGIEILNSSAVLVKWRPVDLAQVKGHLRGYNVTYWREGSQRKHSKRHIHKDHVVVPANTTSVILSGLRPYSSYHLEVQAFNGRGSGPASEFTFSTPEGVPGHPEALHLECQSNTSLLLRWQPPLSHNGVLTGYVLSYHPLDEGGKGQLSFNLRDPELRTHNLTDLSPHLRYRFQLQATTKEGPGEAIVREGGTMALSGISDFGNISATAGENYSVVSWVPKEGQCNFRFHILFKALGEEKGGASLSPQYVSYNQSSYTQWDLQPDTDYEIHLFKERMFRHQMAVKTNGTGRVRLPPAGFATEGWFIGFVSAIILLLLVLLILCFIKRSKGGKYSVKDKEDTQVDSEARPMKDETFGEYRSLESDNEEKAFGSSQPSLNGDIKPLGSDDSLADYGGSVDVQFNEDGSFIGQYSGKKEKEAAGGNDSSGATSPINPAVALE

“PE-labeled mouse IgG2a (κ) (clone MOPC-173, BioLegend) (antibody)”: the MFI isotype control antibody came out at 9140 MFI in assay [1], 9420 MFI in assay [2], 8680 MFI in assay [3] and 13100 MFI in assay [4].

Regarding “phycoerythrin (PE)-labeled anti-human L1CAM antibody (clone L1-OV198.5, BioLegend)”, the MFI anti-L1CAM antibody in assay [5] came out at 1.22e+06 MFI; in [6], 46400 MFI; in assay [7], 1.5e+06 MFI; in [8] it was 183000 MFI. The Fold increase in MFI (anti-L1CAM vs isotype) in assay [9] came out at 133 fold; in [10], 5 fold; in assay [11], 173 fold; in [12], 14 fold.
